# Assay results taken from paper doi:10.1101/2025.07.22.666130 (bioRxiv, 2025).
# Substitutions are numbered along the chain they refer to. Names may count otherwise. Like-named read-outs stand apart in the source and are kept apart here.
# T1: RAD52 full length (UniProt P43351 1-418)
# T1 sequence: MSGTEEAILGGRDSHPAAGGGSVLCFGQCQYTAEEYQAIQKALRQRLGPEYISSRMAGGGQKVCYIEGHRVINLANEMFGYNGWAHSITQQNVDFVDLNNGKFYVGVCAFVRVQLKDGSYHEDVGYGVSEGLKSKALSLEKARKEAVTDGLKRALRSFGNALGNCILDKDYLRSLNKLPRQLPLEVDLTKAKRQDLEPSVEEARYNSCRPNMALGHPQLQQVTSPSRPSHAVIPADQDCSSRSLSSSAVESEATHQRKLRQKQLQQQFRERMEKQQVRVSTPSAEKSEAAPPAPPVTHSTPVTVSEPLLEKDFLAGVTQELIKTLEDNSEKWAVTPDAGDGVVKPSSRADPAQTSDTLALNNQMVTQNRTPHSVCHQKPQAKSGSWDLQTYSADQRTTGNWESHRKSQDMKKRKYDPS
# T2: RAD52-CTD (UniProt P43351 217-418)
# T2 sequence: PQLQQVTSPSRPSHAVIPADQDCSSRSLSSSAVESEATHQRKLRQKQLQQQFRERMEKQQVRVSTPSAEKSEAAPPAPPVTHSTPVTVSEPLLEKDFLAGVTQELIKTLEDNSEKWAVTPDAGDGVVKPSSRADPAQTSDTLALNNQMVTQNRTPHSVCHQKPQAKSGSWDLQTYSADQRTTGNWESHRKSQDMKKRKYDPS
# B1: GST-tagged RAD52 CTD (217-418) wild type (domain or fragment)
# chain: T2 sequence
# B2: GST-tagged RAD52 CTD (217-418) L314A/V317N/L321Q/I322Q/L325A/W332A (domain or fragment, human, UniProt P43351 217-418, looked up)
# chain: T2 sequence with L98A, V101N, L105Q, I106Q, L109A, W116A
# B3: 15N-labeled RAD52-CTD (217-418), GST tag cleaved (domain or fragment)
# chain: T2 sequence
# modifications: uniformly 15N labeled
# B4: Human RPA70N (1-120) (domain or fragment)
# chain: MVGQLSEGAIAAIMQKGDTNIKPILQVINIRPITTGNSPPRYRLLMSDGLNTLSSFMLATQLNPLVEEEQLSSNCVCQIHRFIVNTLKDGRRVVILMELEVLKSAEAVGVKIGNPVPYNE
# B5: no. 1 63-mer ssDNA (ssDNA)
# DNA: ACAGCACCAGATTCAGCAATTAAGCTCTAAGCCATCCGCAAAAATGACCTCTTATCAAAAGGA
# B6: no. 517 63-mer RNA (ssRNA)
# RNA: UCCUUUUGAUAAGAGGUCAUUUUUGCGGAUGGCUUAGAGCUUAAUUGCUGAAUCUGGUGCUGU
# How the values were obtained:
# [1] = target: T3, full-length RPA trimer (RPA70:RPA14:RPA32) (human, UniProt P27694;P15927;P35244); experiment: pull-down
# [2] = target: T3, full-length RPA trimer …; experiment: pull-down; remark: listed apart in the source
# [3] = target: T3, full-length RPA trimer …; experiment: NMR titration
# [4] = target: B3; experiment: NMR titration
# RAD52 full length [5] = target: T1, RAD52 full length; experiment: EMSA
# RAD52-CTD [6] = target: T2, RAD52-CTD; experiment: EMSA
# RAD52 full length [7] = target: T1, RAD52 full length; experiment: EMSA; remark: listed apart in the source
# RAD52-CTD [8] = target: T2, RAD52-CTD; experiment: EMSA; remark: listed apart in the source
# [9] = target: RPA heterotrimer (RPA70:RPA32:RPA14) (human, UniProt P27694;P15927;P35244 1-616;1-270;1-121); experiment: EMSA
# RPA heterotrimer (RPA70:RPA32:RPA14), sequence (P15927 whole entry, chain 2 of 2): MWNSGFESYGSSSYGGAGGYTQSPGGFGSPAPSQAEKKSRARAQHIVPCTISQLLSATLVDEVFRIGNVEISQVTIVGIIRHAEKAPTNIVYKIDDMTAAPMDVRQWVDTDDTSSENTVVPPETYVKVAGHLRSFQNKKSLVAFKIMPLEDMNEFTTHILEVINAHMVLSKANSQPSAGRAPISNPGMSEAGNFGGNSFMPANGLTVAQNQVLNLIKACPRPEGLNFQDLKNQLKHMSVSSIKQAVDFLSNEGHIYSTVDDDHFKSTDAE
# RPA heterotrimer (RPA70:RPA32:RPA14), sequence (P35244 whole entry, chain 3 of 2): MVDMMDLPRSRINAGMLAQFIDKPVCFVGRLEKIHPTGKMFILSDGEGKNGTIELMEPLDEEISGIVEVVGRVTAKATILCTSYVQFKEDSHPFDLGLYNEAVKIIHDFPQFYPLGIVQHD
# T3 sequence (P15927 whole entry, chain 2 of 2): as the sequence (P15927 whole entry, chain 2 of 2) above
# T3 sequence (P35244 whole entry, chain 3 of 2): as the sequence (P35244 whole entry, chain 3 of 2) above
binder,measurement,setting,value
B1,binding result,[1],binds
B2,binding result,[2],binds
B3,binding result,[3],binds
B4,binding result,[4],binds
B5,binding result,RAD52 full length [5],binds
same,binding result,RAD52-CTD [6],no binding
B6,binding result,RAD52 full length [7],binds
same,binding result,RAD52-CTD [8],no binding
same,binding result,[9],binds
